Measurements published in US20080014635A1.
pKd: −log10 of the molar value.

Assays:
[1] = target: mutant clone 11 (TNFrED S76P)-agglutinin fusion displayed on yeast (human); test: saturation binding of [125I]TNF-α to yeast displaying mutant clone 11, best-fit values box; axis 'Bound' has no unit [C]
[2] = target: mutant clone 6 (TNFrED H23P + S46I)-agglutinin fusion displayed on yeast (human); test: saturation binding of [125I]TNF-α to yeast displaying mutant clone 6, best-fit values box; axis 'Bound' has no unit [B]
[3] = target: mutant clone 6 (TNFrED H23P + S46I)-agglutinin fusion displayed on yeast (human); test: saturation binding of [125I]TNF-α to yeast displaying mutant clone 6, best-fit values box; the box prints no unit, the concentration axis is TNF-α [nM] [B]
[4] = target: wild-type TNFrED-agglutinin fusion displayed on the surface of S. cerevisiae BJ2168 (human); test: flow cytometry of yeast, biotinylated hTNF-α detected with FITC-avidin (FL1-H); gate line at FL1-H just below 10^1; vector-only pYES2 yeast in the left panel: Right Half= 1.42% [B]
[5] = target: wild-type TNFrED-agglutinin fusion displayed on the surface of S. cerevisiae BJ2168 (human); test: flow cytometry of yeast, biotinylated hTNF-α detected with FITC-avidin (FL1-H); vector-only pYES2 yeast in the left panel: Left Half= 98.58% [B]
[6] = target: wild-type TNFrED-agglutinin fusion displayed on the surface of S. cerevisiae BJ2168 (human); test: saturation binding of [125I]TNF-α to yeast displaying wild-type TNFrED, best-fit values box; axis 'Bound' has no unit [A]
[7] = target: wild-type TNFrED-agglutinin fusion displayed on the surface of S. cerevisiae BJ2168 (human); test: saturation binding of [125I]TNF-α to yeast displaying wild-type TNFrED, best-fit values box; the box prints no unit, the concentration axis is TNF-α [nM] [A]

Sequence of wild-type TNFrED-agglutinin fusion displayed on the surface of S. cerevisiae BJ2168 (human) (P20840 other isoform, or with tags, fused parts or gaps, form in doubt): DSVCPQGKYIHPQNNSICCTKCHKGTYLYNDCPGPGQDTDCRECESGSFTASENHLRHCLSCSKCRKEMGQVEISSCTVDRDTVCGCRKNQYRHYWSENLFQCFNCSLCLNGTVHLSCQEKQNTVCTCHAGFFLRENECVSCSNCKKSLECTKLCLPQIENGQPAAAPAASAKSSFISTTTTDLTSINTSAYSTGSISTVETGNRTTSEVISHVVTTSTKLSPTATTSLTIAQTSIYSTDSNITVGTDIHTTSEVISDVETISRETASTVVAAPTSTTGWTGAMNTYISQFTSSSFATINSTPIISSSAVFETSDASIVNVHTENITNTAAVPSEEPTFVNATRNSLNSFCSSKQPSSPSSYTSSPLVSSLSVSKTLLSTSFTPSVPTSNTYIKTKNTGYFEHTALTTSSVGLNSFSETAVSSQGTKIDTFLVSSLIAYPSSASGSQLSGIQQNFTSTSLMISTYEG
Sequence of mutant clone 6 (TNFrED H23P + S46I)-agglutinin fusion displayed on yeast (human) (P20840 other isoform, or with tags, fused parts or gaps H23P S46I H23P S46I, form in doubt): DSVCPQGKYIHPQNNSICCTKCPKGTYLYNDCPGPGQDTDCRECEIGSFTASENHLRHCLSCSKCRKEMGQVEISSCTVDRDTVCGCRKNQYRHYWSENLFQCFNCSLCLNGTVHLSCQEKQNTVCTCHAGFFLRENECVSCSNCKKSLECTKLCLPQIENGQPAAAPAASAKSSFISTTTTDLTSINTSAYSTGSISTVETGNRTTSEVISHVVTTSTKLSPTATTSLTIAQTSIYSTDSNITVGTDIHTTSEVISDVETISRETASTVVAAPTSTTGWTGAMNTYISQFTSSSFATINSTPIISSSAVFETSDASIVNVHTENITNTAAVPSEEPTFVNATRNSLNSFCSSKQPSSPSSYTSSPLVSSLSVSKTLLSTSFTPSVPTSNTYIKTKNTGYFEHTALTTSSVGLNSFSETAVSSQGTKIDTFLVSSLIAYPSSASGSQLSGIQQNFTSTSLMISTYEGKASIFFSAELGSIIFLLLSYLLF
Sequence of mutant clone 11 (TNFrED S76P)-agglutinin fusion displayed on yeast (human) (P20840 other isoform, or with tags, fused parts or gaps S76P S76P, form in doubt): as the sequence (P20840 other isoform, or with tags, fused parts or gaps H23P S46I H23P S46I, form in doubt) above, with P23H, I46S, S76P counted along it

- BMAX [1]: 0.127
- BMAX [2]: 0.334
- pKd [3]: 8.77
- Right Half (percent of yeast cells right of the FL1-H gate) [4]: 10.9%
- Left Half (percent of yeast cells left of the FL1-H gate) [5]: 89.1%
- BMAX [6]: 0.0645
- pKd [7]: 8.69
Substance: human TNF-α (hTNF-α) (from UniProt P01375 77-233) (ligand)
